Measurements as given in the nanobody polyreactivity screen of Harvey et al. (2022).

Experiment: yeast display, Sf9 membrane polyspecificity reagent, FACS + sequencing; frameworks hold sequencing errors
How it was run: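 Nanobodies came from a synthetic yeast display library in Saccharomyces cerevisiae BJ5465, induced with galactose for 36–48 hours and stained for 1 hour at 4 °C with 10% biotinylated, detergent-solubilized Sf9 membrane reagent. Cells were enriched on streptavidin microbeads and then FACS-sorted, with low and high (top ~1%) gates set on anti-HA fluorescence for expression and streptavidin fluorescence for reagent binding. Each polyreactivity label reflects the gate a clone came from. Genes were amplified by colony PCR, sequenced by MiSeq 2 × 250 and filtered by CDR length.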

| Sequence | polyreactivity (PSR sort gate) |
| --- | --- |
| QVQLVESGGGLVQAGGSLRLSCAASGSTFFEYAMGWYRKAPGKEREFVAGISWSGGITYYADSVKGRFTISRDNAKNTVYLQMNSLKPEDTAVYYCATAGGDWYGVDYWGQGTQVTVSS | low polyreactivity |
| QVQLVESGGGLVQAGGSLRLSCAASGSTFYVNAMGWYRQAPGKERELVAAISRRGGSTYYADSVKGRFTISRDNAKNTVYLQMNSLKPEDTAVYYCNVVPVWRPYSLINWQKHFGYWGQGTQVTVSS | high polyreactivity |
| QVQLVESGGGLVQAGGSLRLSCAASGLIFYVYAMGWYRQAPGKERELVAAIRGSGARTYYADSVKGRFTISRDNAKNTVYLQMNSLKPEDTAVYYCNARQRYRPSYDYWGQGTQVTVSS | high polyreactivity |
| QVQLVESGGGLVQAGGSLRLSCAASGSTFFRNAMGWYRQAPGKERELVASITSGGNTKYADSVKGRFTISRDNAKNTVYLQMNSLKPEDTAVYYCAAKFYHFASYSRLYNYWGQGTQVTVSS | low polyreactivity |
| QVQLVESGGGLVQAGGSLRLSCAASGRIFPRYAMGWYRQAPGKERELVAGINSGGRTNYADSVKGRFTISRDNAKNTVYLQMNSLKPEDTAVYYCAKRTYPYGTYRSVWGYDYWGQGTQVTVSS | low polyreactivity |
| QVQLVESGGGLVQAGGSLRLSCAASGRNFYGYAMGWYRQAPGKERELVAAISWSGGSTYYADSVKGRFTISRDNAKNTVYLQMNSLKPEDTAVYYCARRYRGGYKYDYWGQGTQVTVSS | high polyreactivity |
| QVQLVESGGGLVQAGGSLRLSCAASGIILGYYAMGWYRQAPGKERELVAAITRSGGRTYYADSVKGRFTISRDNAKNTVYLQMNSLKPEDTGVYYCAADDPYTPQYPDVTYDYWGQGTQVTVSS | high polyreactivity |
| QVQLVESGGGLVQAGGSLRLSCAASGSTFWIYTMGWYRQAPGKERELVAAITWSGGRTYYADSVKGRFTISRDNAKNTVYLQMNSLKPEDTAVYYCNADVYSYRPSTIQRYVLFDYWGQGTQVTVSS | low polyreactivity |
| QDQLVESGGGLVQAGGSLRRSCAASGFTFFIYAMGWYRQAPGKEREFVAAITGSGGSTYYADSVKGRFTISRDNAKNTVYLQMNRLKPEDTAVYYCNKLSYGRSGYWGQGTQVTVSS | high polyreactivity |
| QFQLVESGGGLVQARGSLRLSCAPSGRTFGIYTMGWYRPAPGKERELVAAISAGGGRTSYADSVKGRFTISRDHAKNTVYLQMMSLKPEDTAVYYCAARVYQYRNEDTTRRAGRSYWGQGTQVTVSS | high polyreactivity |
| QVQLVESGGGLVQAGGSLRLSCAASGRTFYRYAMGWYRQAPGKEREFVAAISGSGGRTYYADSVKGRFTISRDNAKNTVYLQMNSLKPEDTAVYYCNAYPHAYTGSTREGDYWGQGTQVTVSS | high polyreactivity |
| QVQLVESGGGLVQAGGSLRLSCAASGRTFKIYAMGWYRQAPGKERELVAAISRGGRTYYADSVKGRFTISRDNAKNTVYLQMNSLKPEDTAVYYCAADLLISPEFYYWGQGTQVTVSS | high polyreactivity |
| QFQLVESGGGLVQAGGSLRLSCAASGRIFNYYAMGWYRQAPGKERELVAAISARGGSTYYADSVKGRFTISRDNAKNTVYLQMNSLKPEDTAVYYCAVSSGSYGYGYWGQGTQVTVSS | high polyreactivity |
| QVQLVESGGGLVHAGGSLRLSCAASGSIFCTNVMGWYRQAPGKERELVAAISYSDGSTYYADSVKGRFTISRDNAKNTVYLQMNILKPEDSAVYYCADYLYYYWGGYDYWGQGTQVTVSS | low polyreactivity |
| QVQLVESGVGLVQAGGSLSLSCAATGRIFNSYMGWYRQAPGKERELDAAISWSSGTSTYYADSVKGRFTISRDNAKNTVYLQMNSLKPEDTAVYYCNADDYYGPYPEEYDYWGQGTQVTVSS | low polyreactivity |
| QVQLVESGGGLVQAGGSLRLSCAASGSIFDDYAMGCYIHAPGKERELVAAITWNGGSTYADSVKGRFTISRDNAKNTVYLQMNSLKPEDTAVYYCAADYFVYWYYGYGYWGQGTQVTVSS | low polyreactivity |
